Test results published in US20190022245A1 (ACADEMIA SINICA, published 2019).

Legend:
[1] = target: T1, BSA (control protein coated on ELISA plates) (UniProt P02769 25-607); test: ELISA, BSA-coated plate, graded concentrations
T1 construct: also called control BSA protein
Method: The anti-PEG binding specificity of BsAbs was measured by adding graded concentrations of PEG2×TAG72,PEG2×DNS, hCC49 scFv, h6.3Fab×EGFR or h6.3Fab×CD19 in 50 μL 2% skim milk to the mucin, BSA-PEG5000, NH₂-PEG₃ₖ-NH₂ or BSA coated plates at RT for 1 h. The plates were washed with PBS-T (PBS containing 0.05% Tween-20) three times. Rabbit anti-6×His (2 μg/mL) supplemented with HRP-conjugated goat anti-rabbit (2 μg/mL) or HRP-conjugated goat Ig anti human IgG Fab (2 μg/mL) (Jackson ImmunoResearch Laboratories, West Grove, Pa.) in 50 μL dilution buffer were added for 1 h at room temperature. The plates were washed with PBS-T (PBS containing 0.05% Tween-20) three times and with PBS two times. Bound peroxidase activity was measured by adding 150 μL/well ABTS substrate solution (BioLegend, San Diego, Calif.) for 30 min at room temperature. The absorbance (405 nm) of wells was measured in a microplate reader (Molecular Device, Menlo Park, Calif.).
Further, both h6-3Fab×EGFR and h6.3Fab×CD19 BsAbs bound to the NH₂-PEG_{10,000}-NH2, but not to the control BSA protein, indicating their binding specificity toward PEG molecule (FIGS. 14A and 14B). […] The PEG-binding kinetics of h6-3Fab×EGFR and h6.3Fab×CD19 BsAbs were verified by Microscale Thermophoresis (MST) (FIGS. 14D and 14E).

[2] = target: T2, epidermal growth factor receptor (EGFR) on cells (human (on human cell lines), UniProt P00533 25-1210); test: flow cytometry, BsAb on A431 cells then PEG-liposome Texas Red or PEG-Qdot655
T2 construct: whole, on cells
Method: PEG2×TAG72 or control PEG2×DNS BsAbs (10 μg/mL) were incubated with A-375(TAG72-), MCF-7(TAG72+), Jurkat (TAG72+) or OVCAR-3(TAG72+) cells at 4° C. for 30 min followed by FITC-labeled goat anti-human immunoglobulin second antibody (2 μg/m L) (Jackson ImmunoResearch Laboratories, West Grove, Pa.) or FITC-labeled 4arm-PEG (2 μg/mL). Tumor-specific targeting of PEGylated compounds was also examined by staining A431 (EGFR^high), and Raji (CD19^high) cell lines with 10 μg/mL of h6.3Fab×EGFR or h6.3Fab×CD19 BsAbs in PBS containing 0.05% BSA (staining buffer) at 4° C. for 30 min. The cells were washed with cold PBS for 3 times. PEG-Qdot655 (8 nM) (Invitrogen, Grand Island, N.Y.) or PEG-liposomal Texas-Red (100 nm size, 50 μM, lipid conc.) (FormuMax Scientific, Palo Alto, Calif.) in staining buffer was added to cells for 30 min at 4° C. […] After washing with cold PBS, the surface fluorescence of 10⁴ viable cells was measured by FACScaliber flow cytometer (Becton Dickinson, Mountain View, Calif., USA) then analyzed with Flowjo (Tree Star Inc., San Carlos, Calif., USA).
Further, both h6-3Fab×EGFR and h6.3Fab×CD19 BsAbs bound to the NH₂-PEG_{10,000}-NH2, but not to the control BSA protein, indicating their binding specificity toward PEG molecule (FIGS. 14A and 14B). […]

[3] = target: T3, human epidermal growth factor receptor (HER2) on cells (human, UniProt P04626 23-1255); test: flow cytometry, 10 µg/ml BsAb, FITC anti-human IgG; also methoxy-PEG Qdot 655 retained at SKBR3 cells
T3 construct: whole, on cells; also called HER2/Neu; Her2/neu

[4] = target: T3, human epidermal growth factor receptor …; test: flow cytometry on SKBR3 cells (HER2+), FITC anti-human IgG
[5] = target: T3, human epidermal growth factor receptor …; test: flow cytometry on BT-474 cells
[6] = target: T3, human epidermal growth factor receptor …; test: culture medium on BT-474 cells (HER2 positive), FITC anti-human Ig
Method: (§1) The binding specificity of monovalent BsAbs with their target proteins was measured by collecting the culture medium of BsAbs producing cells, adding the collected medium to cells that expressed the target protein, then determining the binding by […]. After washing the cells, the bound BsAbs were detected by FITC-labeled goat anti-human immunoglobulin second antibody. […] Thus, monovalent anti-PEG (hE11) BsAbs bound to target cells in an antigen-dependent and selective manner.

[7] = target: T2, epidermal growth factor receptor (EGFR) …; test: culture medium on MDA-MB-468 cells (EGFR positive), FITC anti-human Ig
Method: as §1

T1 sequence (P02769 25-607 limits assumed): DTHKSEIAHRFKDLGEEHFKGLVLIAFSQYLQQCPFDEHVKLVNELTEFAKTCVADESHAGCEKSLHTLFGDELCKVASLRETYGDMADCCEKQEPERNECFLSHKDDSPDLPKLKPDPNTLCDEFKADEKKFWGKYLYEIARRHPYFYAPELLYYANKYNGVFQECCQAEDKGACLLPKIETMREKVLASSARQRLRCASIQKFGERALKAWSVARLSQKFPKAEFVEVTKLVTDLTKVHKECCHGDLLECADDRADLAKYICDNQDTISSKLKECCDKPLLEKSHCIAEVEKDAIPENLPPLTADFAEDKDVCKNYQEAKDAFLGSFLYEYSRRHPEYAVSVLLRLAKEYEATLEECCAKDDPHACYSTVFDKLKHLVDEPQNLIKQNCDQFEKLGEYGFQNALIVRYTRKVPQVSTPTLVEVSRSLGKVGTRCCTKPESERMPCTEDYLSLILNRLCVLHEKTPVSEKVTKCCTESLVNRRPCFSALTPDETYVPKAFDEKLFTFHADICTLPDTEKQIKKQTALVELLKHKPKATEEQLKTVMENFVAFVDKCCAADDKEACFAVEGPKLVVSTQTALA

B1: h6.3 Fab × CD19 (monovalent anti-PEG (h6.3) anti-CD19 BsAb) (bispecific antibody)
light: DIVMTQSPDSLAVSLGERATINCKSSQSVLYSSNQMNYLAWYQQKPGQPPKLLIYWASTRESGVPDRFSGSGSGTDFTLTISSLQAEDVAVYYCLQYLSSWTFGGGTKLEIKTYSLSSTLTLSKADYEKHKLYACEVTHQGLSSPVTKSFNRGEC
heavy: QVQLVQSGSELKKPGASVKVSCKASGYTFKNYGMNWVRQAPGQGLEWMGWINTYTGQPIYANDFKGRFVFSLDTSVSTAYLQISSLKAEDTAVYYCARDWGPYWGQGTLVTVSSASTKGPSVFPLAPSSKSTSGGTAALGCLVKDYFPEPVTVSWNSGALTSGVHTFPAVLQSSGLYSLSSVVTVPSSSLGTQTYICNVNHKPSNTKVDKRVEPKSCDKVDLVTVSSASTGGGSGQLGGGGSQVQLQESGPGLVKPSQTLSLTCTVSGGSISTSGMGVGWIRQHPGKCLEWIGHIWWDDDKRYNPALKSRVTISVDTSKNQFSLKLSSVTAADTAVYYCARMELWSYYFDYWGQGTLVTVSSGGGGSGGGGSGGGGSEIVLTQSPATLSLSPGERATLSCSASSSVSYMHWYQQKPGQAPRLLIYDTSKLASGIPARFSGSGSGTDFTLTISSLEPEDVAVYYCFQGSVYPFTFGCGTKLEIKRTRHHHHHH
notes: Fab-dsFv; also called h6.3-hBU12
- binding result [1]: no binding
- binding result [2]: no binding (tested: 10 µg/mL)

B2: 15-2b knob/anti-HER2 hole (knob in hole anti-mPEG (h15-2b) anti-HER2 BsAb) (bispecific antibody)
light 1: DIQMTQSPSSLSASVGDRVTITCKASQDVNTSVAWYQQKPGKAPKLLIYWASTRHTGVPSRFSGSGSGTDFTFTISSLQPEDIATYYCLQYINYPYTFGQGTKLEIKRTVAAPSVFIFPPSDEQLKSGTASVVCLLNNFYPREAKVQWKVDNALQSGNSQESVTEQDSKDSTYSLSSTLTLSKADYEKHKLYACEVTHQGLSSPVTKSFNRGEC
heavy 1: not shown
light 2: QSVLTQPPSVSAAPGQKVTISCSGSSSNIGNNYVSWYQQLPGTAPKLLIYDHTNRPAGVPDRFSGSKSGTSASLAISGFRSEDEADYYCASWDYTLSGWVFGGGTKLTVLGSSASTKGPSVFPLAPSSKSTSGGTAALGCLVKDYFPEPVTVSWNSGALTSGVHTFPAVLQSSGLYSLSSVVTVPSSSLGTQTYICNVNHKPSNTKVDKKV
heavy 2: not shown
notes: Four different chains; also called h15-2b-knob/anti-HER2-hole; h15-2b-knob/anti-Her2-hole; not shown: HA tag fused at the N terminal of the hole heavy chain
- binding result [3]: binds

B3: 15-2b knob/Bu12 hole (knob in hole anti-mPEG (h15-2b) anti-CD19 BsAb) (bispecific antibody)
light 1: DIQMTQSPSSLSASVGDRVTITCKASQDVNTSVAWYQQKPGKAPKLLIYWASTRHTGVPSRFSGSGSGTDFTFTISSLQPEDIATYYCLQYINYPYTFGQGTKLEIKRTVAAPSVFIFPPSDEQLKSGTASVVCLLNNFYPREAKVQWKVDNALQSGNSQESVTEQDSKDSTYSLSSTLTLSKADYEKHKLYACEVTHQGLSSPVTKSFNRGEC
heavy 1: not shown
light 2: EIVLTQSPATLSLSPGERATLSCSASSSVSYMHWYQQKPGQAPRLLIYDTSKLASGIPARFSGSGSGTDFTLTISSLEPEDVAVYYCFQGSVYPFTFGQGTKLEIKRSSASTKGPSVFPLAPSSKSTSGGTAALGCLVKDYFPEPVTVSWNSGALTSGVHTFPAVLQSSGLYSLSSVVTVPSSSLGTQTYICNVNHKPSNTKVDKKV
heavy 2: not shown
notes: Four different chains; also called h15-2b-knob/BU12-hole; h15-2b knob+BU12-hole; not shown: HA tag fused at the N terminal of the hole heavy chain
- binding result [4]: no binding (tested: 10 µg/ml)

B4: PEG2×HER2 (dimeric humanized anti-PEG (hE11) anti-HER2 BsAb) (bispecific antibody, human IgG1, kappa)
light: DVVMTQSPLSLPVTLGQPASISCRSSKSIVHSNGNTYLEWFQQRPGQSPRRLIYKVSKRMSGVPDRFSGSGSGTDFTLKISRVEAEDVGVYYCSQGSHVPPTFGGGTKVEIKRTVAAPSVFIFPPSDEQLKSGTASVVCLLNNFYPREAKVQWKVDNALQSGNSQESVTEQDSKDSTYSLSSTLTLSKADYEKHKLYACEVTHQGLSSPVTKSFNRGEC
heavy: not shown
notes: also called PEG2×HER2 BsAbs
- binding result [5]: binds

B5: PEGxTAG72 (monovalent anti-PEG (hE11) Fab fused to anti-TAG72 scFv, example 2.1) (bispecific antibody)
light: DVVMTQSPLSLPVTLGQPASISCRSSKSIVHSNGNTYLEWFQQRPGQSPRRLIYKVSKRMSGVPDRFSGSGSGTDFTLKISRVEAEDVGVYYCSQGSHVPPTFGGGTKVEIKRTVAAPSVFIFPPSDEQLKSGTASVVCLLNNFYPREAKVQWKVDNALQSGNSQESVTEQDSKDSTYSLSSTLTLSKADYEKHKLYACEVTHQGLSSPVTKSFNRGEC
heavy: QVQLVQSGAEVKKPGASVKVSCKASGYTFTTYTMNWVRQAPGQGLEWMGYIIPSSGYVDYNQKFKGRVTMTRDTSTSTVYMELSSLRSEDTAVYYCVRSLDGYFWFAYWGQGTLVTVSSASTKGPSVFPLAPSSKSTSGGTAALGCLVKDYFPEPVTVSWNSGALTSGVHTFPAVLQSSGLYSLSSVVTVPSSSLGTQTYICNVNHKPSNTKVDKRVVDLVTVSSASTGGGSGQLGGGGSQVQLVQSGAEVKKPGASVKVSCKASGYTFTDHAIHWVRQAPGQCLEWMGYFSPGNDDFKYSQKFQGRVTITADKSASTAYMELSSLRSEDTAVYYCARSWIMQYWGQGTLVTVSSGGGGSGGGGSGGGGSDIVMTQSPDSLAVSLGERATINCKSSQSVLYSSNNKNYLAWYQQKPGQPPKLLIYWASTRESGVPDRFSGSGSGTDFTLTISSLQAEDVAVYYCQQYYSYPLTFGCGTKVEIKTRHHHHHH
notes: Tested as culture medium of producer cells; also called PEG×TAG72; monovalent anti-PEG (hE11) BsAb
- binding result [6]: no binding
- binding result [7]: no binding
